# Results published in patent US20090087417A1, “METHODS FOR PROMOTING DOPAMINERGIC NEURONAL DEVELOPMENT BY USING NG4A-SUBFAMILY AND WNT-LIGANDS” (priority 2002, published 2009).
# Test system: E14.5 VM precursor cultures
# Assay: Real time RT-PCR of gene expression in Wnt-treated VM precursor cultures
# Type: cell-based, rat
# Details: 3 days in vitro
# Text: Total RNA was isolated from confluent T1A astrocyte cultures derived from ventral mesencephalon, dorsal mesencephalon and cortex of P1 rats and from tissue dissected from E10.5, E11.5, E13.5, E15.5 and P1 ventral and dorsal mesencephalon, and E14, E16, E18 and P1 cortex, using RNeasy extraction kit (Qiagen, Hilden, Germany). Total RNA was also extracted from E14.5 VM precursor cultures (7.5 million cells in 100 mm dishes) treated with wnts for 3 days in vitro (triplicate determination). For the reverse transcription, […] of total RNA was initially treated with 1 unit RQ1 Rnase-free DNAse (Promega, Madison, USA) for 40 minutes. The DNAse was inactivated by the addition of 1 μl of EDTA 0.02M and incubation at 65° C. for 10 minutes. 0.5 μg random primers (Life Technologies, Grand Island, N.Y., USA) were then added, and the mixture was incubated at 70° C. for 10 minutes. Each sample was then equally divided in two tubes, a cDNA reaction tube and a negative control tube. A master mix containing 1× First-Strand Buffer (Life Technologies, Grand Island, N.Y., USA), 0.01M DTT (Life Technologies, Grand Island, N.Y., USA) and 0.5 mM dNTPS (Promega, Madison, USA) was then added to both cDNA and RT− tubes and incubated at 25° C. for 10 minutes, followed by a 2 minutes incubation at 42° C. 200 units of Superscript II reverse transcriptase (Life Technologies, Grand Island, N.Y., USA) were then added only to the cDNA tubes and all sample were incubated at 42° C. for 50 minutes. Superscript II was inactivated with an incubation for 10 minutes at 70° C. Both cDNA and RT− were then diluted 10 times, for further analysis.
# Real-time PCR was performed in triplicates, with 1 μl 1:10 diluted cDNA and RT−, in a total volume of 25 μl. Each PCR reaction consisted on 1×PCR buffer (Life Technologies, Grand Island, N.Y., USA), 3 mM MgCl2 (Life Technologies, Grand Island, N.Y., USA), 0.2 mM dNTPs (Promega, Madison, USA), 0.3 μM each of the forward and reverse primers, 1 unit Platinum Taq DNA polymerase (Life Technologies, Grand Island, N.Y., USA) and 1×SYBR Green (Molecular Probes, Leiden, The Netherlands). The PCR was performed at 94° C. for 2 min and then for 35-40 cycles at 94° C. for 30 s, at 60° C. for 30-45 s, at 72° C. for 45-60 s and at 80° C. for 15 s (for SYBR Green detection) on the ABI PRISM 5700 Detection System (PE Applied Biosystems, Foster City, Calif., USA). Other annealing temperatures included 54° C. for Wnt 5a, 57° C. for p27, 62° C. for Cyclin D1, 61° C. for Cyclin D2 and 65° C. for p57. A melting curve was obtained for each PCR product after each run, in order to confirm that the SYBR Green signal corresponded to a unique and specific amplicon. The specificity of the PCR product was verified by sequencing.
# Standard curves were generated in every 96-wells plate real time PCR run, using serial 3-fold dilutions of a reverse transcribed RNA or plasmid containing the sequence of interest for every probe. The resulting standard curve plots were then used to convert the Cts (number of PCR cycles needed for a given template to be amplified to an established fluorescence threshold) into arbitrary quantities of initial template of a given sample.
# The expression levels were obtained by subtracting the RT− value for each sample from the corresponding RT+ value and then dividing that number by the value of the house-keeping gene, 18S, obtained for every sample in parallel assays.
# Statistical analysis of the results was performed by one way ANOVA. Fisher's protected least significant difference was used post hoc to identify specific points at which the different developmental stages differed from the earliest, only when significant interactions occurred. Significance for all tests was assumed at the level of p<0.05 (*p<0.05; **p<0.001; ***p<0.000).
Molecule,cyclin D1 mRNA,cyclin D2 mRNA,cyclin D3 mRNA,p27 mRNA,p57 mRNA,Ptx3 mRNA,c-ret expression,expression of GFR[…]1,expression of NCAM,p21 mRNA expression
"Wnt-7a: Partially purified / conditioned media from Wnt-7a overexpressing fibroblast cell line (protein, UniProt P24383 32-349, looked up, conditioned medium, Partially purified / conditioned media from Wnt-7a overexpressing fibroblast cell line) Protein Wnt-7a: LGASIICNKIPGLAPRQRAICQSRPDAIIVIGEGSQMGLDECQFQFRNGRWNCSALGERTVFGKELKVGSREAAFTYAIIAAGVAHAITAACTQGNLSDCGCDKEKQGQYHRDEGWKWGGCSADIRYGIGFAKVFVDAREIKQNARTLMNLHNNEAGRKILEENMKLECKCHGVSGSCTTKTCWTTLPQFRELGYVLKDKYNEAVHVEPVRASRNKRPTFLKIKKPLSYRKPMDTDLVYIEKSPNYCEEDPVTGSVGTQGRACNKTAPQASGCDLMCCGRGYNTHQYARVWQCNCKFHWCCYVKCNTCSERTEMYTCK",increased,not regulated,No regulation,decreased,decreased,,,,,
"Wnt-5a: Partially purified conditioned media from stable fibroblast cell line engineered to secrete Wnt-5a ligand (protein, left off: small tags and cut ends) IIGAQPLCSQLAGLSQGQKKLCHLYQDHMQYIGEGAKTGIKECQYQFRHRRWNCSTVDNTSVFGRVMQIGSRETAFTYAVSAAGVVNAMSRACREGELSTCGCSRAARPKDLPRDWLWGGCGDNIDYGYRFAKEFVDARERERIHAKGSYESARILMNLHNNEAGRRTVYNLADVACKCHGVSGSCSLKTCWLQLADFRKVGDALKEKYDSAAAMRLNSRGKLVQVNSRFNSPTTQDLVYIDPSPDYCVRNESTGSLGTQGRLCNKTSEGMDGCELMCCGRGYDQFKTVQTERCHCKFHWCCYVKCKKCTEIVDQFVCK",not,not affected,not,,not,increased,upregulated,maintained,maintained,neither affected
"Wnt-1: Partially purified conditioned media from stable fibroblast cell line engineered to secrete Wnt-1 ligand (protein, left off: small tags and cut ends) ANSSGRWWGIVNIASSTNLLTDSKSLQLVLEPSLQLLSRKQRRLIRQNPGILHSVSGGLQSAVRECKWQFRNRRWNCPTAPGPHLFGKIVNRGCRETAFIFAITSAGVTHSVARSCSEGSIESCTCDYRRRGPGGPDWHWGGCSDNIDFGRLFGREFVDSGEKGRDLRFLMNLHNNEAGRTTVFSEMRQECKCHGMSGSCTVRTCWMRLPTLRAVGDVLRDRFDGASRVLYGNRGSNRASRAELLRLEPEDPAHKPPSPHDLVYFEKSPNFCTYSGRLGTAGTAGRACNSSSPALDGCELLCCGRGHRTRTQRVTERCNCTFHWCCHVSCRNCTHTRVLHECL",upregulated,not affected,upregulated,downregulated,downregulated,,not,repressed,repressed,neither affected
"Wnt-2: Partially purified / conditioned media from Wnt-2 overexpressing fibroblast cell line (protein, UniProt P21552 26-360, looked up, conditioned medium, Partially purified / conditioned media from Wnt-2 overexpressing fibroblast cell line) Protein Wnt-2: SWWYMRATGGSSRVMCDNVPGLVSRQRQLCHRHPDVMRAIGLGVAEWTAECQHQFRQHRWNCNTLDRDHSLFGRVLLRSSRESAFVYAISSAGVVFAITRACSQGELKSCSCDPKKKGSAKDSKGTFDWGGCSDNIDYGIKFARAFVDAKERKGKDARALMNLHNNRAGRKAVKRFLKQECKCHGVSGSCTLRTCWLAMADFRKTGDYLWRKYNGAIQVVMNQDGTGFTVANKRFKKPTKNDLVYFENSPDYCIRDREAGSLGTAGRVCNLTSRGMDSCEVMCCGRGYDTSHVTRMTKCECKFHWCCAVRCQDCLEALDVHTCKAPKSADWATPT",slight upregulation,increases,No regulation,increases,increases,,,,,
